Data taken from patent EP4707292A2.

How the values were obtained:
[1] = biological target: Adeno-associated virus 9 (AAV9) virion (adeno-associated virus 9); experiment: co-IP with ADK9/LC-MS/MS, AAV9 + human serum vs control
[2] = biological target: Adeno-associated virus 8 (AAV8) virion (adeno-associated virus 8); experiment: co-IP/LC-MS/MS, AAV8 + human serum vs PBS control
[3] = biological target: Adeno-associated virus 8 (AAV8) virion (adeno-associated virus 8); experiment: cell-based or functional assay
[4] = biological target: Haploid virus AAV2/8 1:1 (adeno-associated virus 2; adeno-associated virus 8); experiment: cell-based or functional assay
[5] = biological target: Adeno-associated virus 2 (AAV2) virion (adeno-associated virus 2); experiment: cell-based or functional assay
[6] = biological target: Haploid virus AAV2/8 1:3 (adeno-associated virus 2; adeno-associated virus 8); experiment: cell-based or functional assay
[7] = biological target: Haploid virus AAV2/8 3:1 (adeno-associated virus 2; adeno-associated virus 8); experiment: cell-based or functional assay

Chain of Fibronectin, P02751 32-2477 (P02751 32-2477 limits assumed): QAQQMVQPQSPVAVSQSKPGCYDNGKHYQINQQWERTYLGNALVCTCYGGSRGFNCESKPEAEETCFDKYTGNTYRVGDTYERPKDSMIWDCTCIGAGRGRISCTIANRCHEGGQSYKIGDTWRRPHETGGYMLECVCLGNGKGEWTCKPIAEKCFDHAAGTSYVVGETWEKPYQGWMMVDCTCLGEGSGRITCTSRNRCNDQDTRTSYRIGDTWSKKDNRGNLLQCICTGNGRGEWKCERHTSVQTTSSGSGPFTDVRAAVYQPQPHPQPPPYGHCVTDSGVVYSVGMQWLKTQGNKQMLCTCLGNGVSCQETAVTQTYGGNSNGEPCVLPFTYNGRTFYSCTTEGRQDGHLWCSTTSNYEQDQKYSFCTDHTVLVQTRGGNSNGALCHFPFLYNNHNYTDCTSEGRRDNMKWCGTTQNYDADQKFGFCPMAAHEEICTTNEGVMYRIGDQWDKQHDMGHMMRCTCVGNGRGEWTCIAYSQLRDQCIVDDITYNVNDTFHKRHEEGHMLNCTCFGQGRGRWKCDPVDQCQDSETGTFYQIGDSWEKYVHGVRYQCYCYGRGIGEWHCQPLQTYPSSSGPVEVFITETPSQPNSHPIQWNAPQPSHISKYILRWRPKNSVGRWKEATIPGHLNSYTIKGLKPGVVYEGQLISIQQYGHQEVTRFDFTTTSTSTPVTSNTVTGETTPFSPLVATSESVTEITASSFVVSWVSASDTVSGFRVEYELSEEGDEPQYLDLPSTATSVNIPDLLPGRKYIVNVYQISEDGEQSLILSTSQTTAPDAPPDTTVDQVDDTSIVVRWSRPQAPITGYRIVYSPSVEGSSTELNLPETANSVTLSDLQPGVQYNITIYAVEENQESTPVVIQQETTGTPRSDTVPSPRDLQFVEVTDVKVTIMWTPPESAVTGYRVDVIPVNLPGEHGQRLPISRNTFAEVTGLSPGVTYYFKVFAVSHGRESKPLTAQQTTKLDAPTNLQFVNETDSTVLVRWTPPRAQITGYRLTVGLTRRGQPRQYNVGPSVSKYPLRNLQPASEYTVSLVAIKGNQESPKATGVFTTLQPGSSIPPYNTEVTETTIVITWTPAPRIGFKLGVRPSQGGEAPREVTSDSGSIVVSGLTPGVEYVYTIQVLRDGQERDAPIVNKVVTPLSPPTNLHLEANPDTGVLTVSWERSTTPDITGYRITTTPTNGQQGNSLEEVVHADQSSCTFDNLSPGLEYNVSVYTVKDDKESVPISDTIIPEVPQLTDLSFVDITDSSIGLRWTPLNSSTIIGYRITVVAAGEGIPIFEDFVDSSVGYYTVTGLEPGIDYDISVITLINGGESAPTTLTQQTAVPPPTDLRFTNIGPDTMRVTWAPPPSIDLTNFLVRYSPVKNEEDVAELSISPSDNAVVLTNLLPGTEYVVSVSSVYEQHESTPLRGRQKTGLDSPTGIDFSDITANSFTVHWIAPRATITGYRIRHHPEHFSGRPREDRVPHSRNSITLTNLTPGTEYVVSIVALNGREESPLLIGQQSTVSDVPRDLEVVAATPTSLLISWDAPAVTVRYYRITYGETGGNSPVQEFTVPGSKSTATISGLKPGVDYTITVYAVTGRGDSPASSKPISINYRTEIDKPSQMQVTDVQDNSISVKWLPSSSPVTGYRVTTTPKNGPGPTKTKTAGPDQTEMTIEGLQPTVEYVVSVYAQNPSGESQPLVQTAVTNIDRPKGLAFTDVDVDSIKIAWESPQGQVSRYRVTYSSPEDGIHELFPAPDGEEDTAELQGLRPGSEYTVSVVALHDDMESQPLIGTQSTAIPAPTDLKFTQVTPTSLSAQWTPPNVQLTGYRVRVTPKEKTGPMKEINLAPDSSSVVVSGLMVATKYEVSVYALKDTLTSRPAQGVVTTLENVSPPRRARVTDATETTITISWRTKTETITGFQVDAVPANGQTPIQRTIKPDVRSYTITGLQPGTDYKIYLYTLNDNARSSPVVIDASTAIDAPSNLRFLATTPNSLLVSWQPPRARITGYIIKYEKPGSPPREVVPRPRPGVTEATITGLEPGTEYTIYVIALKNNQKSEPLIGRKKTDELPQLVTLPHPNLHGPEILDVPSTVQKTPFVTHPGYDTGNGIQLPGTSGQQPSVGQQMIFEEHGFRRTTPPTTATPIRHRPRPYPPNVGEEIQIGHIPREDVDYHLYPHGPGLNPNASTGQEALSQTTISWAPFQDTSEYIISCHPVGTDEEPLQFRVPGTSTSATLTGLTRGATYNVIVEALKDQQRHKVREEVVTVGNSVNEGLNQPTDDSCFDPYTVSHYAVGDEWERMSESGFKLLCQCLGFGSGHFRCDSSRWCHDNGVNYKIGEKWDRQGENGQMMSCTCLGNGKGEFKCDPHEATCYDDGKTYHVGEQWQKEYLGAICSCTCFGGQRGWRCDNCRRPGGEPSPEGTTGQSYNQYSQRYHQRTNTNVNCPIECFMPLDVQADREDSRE
Chain of Ig kappa chain V-I region EU (P01602 23-117 limits assumed): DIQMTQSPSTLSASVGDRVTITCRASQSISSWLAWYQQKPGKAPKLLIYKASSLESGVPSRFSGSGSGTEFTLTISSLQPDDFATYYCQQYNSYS

## Alpha-2-HS-glycoprotein (from UniProt C9JV77 19-301; C9JV77 342-368)
[1]
  fold change: 3.17 fold
[2]
  fold change: 3.17 fold

## Complement C4-A (from UniProt P0C0L4 20-1744)
[1]
  fold change: 2.42 fold
[2]
  fold change: 2.42 fold

## Fibrinogen gamma chain (Fragment) (from UniProt C9JU00 1-123)
[1]
  Fold increase: 8.36 fold
  fold change: 0.417 fold
[2]
  fold change: 0.417 fold

## Fibronectin, P02751 32-2477
[1]
  Fold increase: 5.41 fold
  fold change: 2.5 fold
[2]
  fold change: 2.5 fold

## Ig kappa chain V-I region EU (from UniProt P01602 23-117)
[1]
  fold change: 3.83 fold
[2]
  fold change: 3.83 fold

## Ig kappa chain V-III region SIE (from UniProt P01619 21-116)
[1]
  fold change: 2.79 fold
[2]
  fold change: 2.79 fold

## Ig lambda-2 chain C regions (from UniProt P0DOY2 1-106)
[1]
  fold change: 1.5 fold
[2]
  fold change: 1.5 fold

## Monoclonal antibody A20
[3]
  Neutralization antibody titer (reciprocal dilution): < 2
[4]
  Neutralization antibody titer (reciprocal dilution): 32
[5]
  A20 neutralizing antibody titer (the dilution at first time inhibits AAV transduction over 50%) (reciprocal dilution): 640
  Neutralization antibody titer (reciprocal dilution): 512
[6]
  Neutralization antibody titer (reciprocal dilution): < 2
[7]
  Neutralization antibody titer (reciprocal dilution): 2048

## Monoclonal antibody ADK8
[3]
  Neutralization antibody titer (reciprocal dilution): 1024
[4]
  Neutralization antibody titer (reciprocal dilution): 512
[5]
  Neutralization antibody titer (reciprocal dilution): < 2
[6]
  Neutralization antibody titer (reciprocal dilution): 1024
[7]
  Neutralization antibody titer (reciprocal dilution): 512

## Platelet factor 4 variant (from UniProt P10720 31-104)
[1]
  Fold increase: 1.47 fold
  fold change: 0.938 fold
[2]
  fold change: 0.938 fold

## Transthyretin (from UniProt P02766 21-147)
[1]
  fold change: 5.55 fold
[2]
  fold change: 5.55 fold
